{"source": "paper doi:10.1101/2022.01.14.476343", "molecular_target": "Tpp49Aa1 pesticidal protein from Lysinibacillus sphaericus (Lysinibacillus sphaericus)", "assay": "crystal structure"}
{"substance": "Tpp49Aa1 pesticidal protein from Lysinibacillus sphaericus (natural protein)", "values": [{"measurement": "stoichiometry N", "value": 2}]}
